Experimental data: US20190248902A1 (published 2019)

T1: Human ASGR-2 (human, UniProt P07307 1-311)
T1 construct: Expressed on HEK 293 cells; cDNA GenBank NM_080913.3; also called huASGR-2; hASGR-2
T1 sequence: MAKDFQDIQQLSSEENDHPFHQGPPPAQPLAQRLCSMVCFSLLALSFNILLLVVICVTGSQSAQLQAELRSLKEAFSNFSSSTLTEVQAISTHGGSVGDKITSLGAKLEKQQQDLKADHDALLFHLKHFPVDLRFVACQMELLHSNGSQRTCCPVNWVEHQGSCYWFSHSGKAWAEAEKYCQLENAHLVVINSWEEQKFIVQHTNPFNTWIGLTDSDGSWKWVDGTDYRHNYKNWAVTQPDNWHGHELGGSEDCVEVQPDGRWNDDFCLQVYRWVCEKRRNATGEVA

T2: Pig ASGR-1 (pig)
T2 construct: Expressed on HEK 293 cells or as membrane prep on beads; cDNA GenBank NM_001244458
T2 chain: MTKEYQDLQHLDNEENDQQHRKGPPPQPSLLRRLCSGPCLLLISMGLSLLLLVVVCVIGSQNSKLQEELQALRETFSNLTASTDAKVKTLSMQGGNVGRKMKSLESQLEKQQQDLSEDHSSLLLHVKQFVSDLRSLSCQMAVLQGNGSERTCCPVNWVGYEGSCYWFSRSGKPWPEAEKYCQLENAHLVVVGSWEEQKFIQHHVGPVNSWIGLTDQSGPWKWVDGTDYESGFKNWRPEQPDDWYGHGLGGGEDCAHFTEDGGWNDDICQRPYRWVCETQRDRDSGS

T3: Dog ASGR-1 (dog)
T3 construct: Expressed on HEK 293 cells or as membrane prep on beads; cDNA GenBank XM_546579
T3 chain: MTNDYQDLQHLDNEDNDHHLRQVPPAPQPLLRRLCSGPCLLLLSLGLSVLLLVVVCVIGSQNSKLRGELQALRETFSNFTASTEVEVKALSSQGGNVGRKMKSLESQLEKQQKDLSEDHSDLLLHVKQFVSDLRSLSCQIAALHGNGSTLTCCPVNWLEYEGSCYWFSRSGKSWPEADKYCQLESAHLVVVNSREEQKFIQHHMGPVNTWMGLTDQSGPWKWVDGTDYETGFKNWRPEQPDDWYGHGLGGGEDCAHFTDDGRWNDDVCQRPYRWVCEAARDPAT


What was measured:
[1] = target: T1, Human ASGR-2; test: FACS on transfected HEK 293 cells; binding = signal at least 2x irrelevant IgG
Protocol: Human ASGR-1-specific, ligand competing antibody samples were tested for binding to ASGR-1 from other species (cynomologus monkey ASGR-1, mouse ASGR-1, rat ASGR-1, dog ASGR-1, and pig ASGR-1) as well as to human ASGR-2 in FACS binding assays at normalized antibody concentrations. For cell-based assays, HEK 293 cells expressing the appropriate antigen of interest were mixed with antibody sample or controls, incubated for 1 hour at 4° C., and then washed twice. Cells with bound antibody were then incubated with Alexa Fluor® 647 IgG Fc fragment-specific detection antibody and 7-AAD viability stain for 15 minutes at 4° C., washed once and resuspended in FACS buffer. Samples were analyzed using a BD Accuri™ Flow Cytometer and an Intellicyt HyperCyt Autosampler. As a negative control, supernatants and controls were also screened against HEK 293 cells transfected with empty parental vector. […] For membrane-prep binding assays, ASGR-1 species specific membrane preps were used to coat LumAvidin® microspheres (beads) and tested for binding to selected hybridoma supernatants or controls. Briefly, ASGR-1 species specific membrane preps were incubated with streptavidin-coated LumAvidin® beads for 45 minutes in the dark at room temperature and washed twice. Beads were resuspeneded in FACS buffer containing Stabilguard®. Antigen-bound beads were then incubated with normalized antibody sample for 1 hour in the dark at room temperature, washed twice, incubated with Alexa Fluor® 488 IgG Fc fragment-specific detection antibody for 15 minutes in the dark at room temperature, washed once and finally resuspended in FACS buffer. Samples were analyzed using an Intellicyt iQue™ Screener Platform. FACS buffer supplemented with 1 mM Calcium Chloride was used in all steps. As a negative control, supernatants and controls were also screened against a non-ASGR-1 antigen membrane prep coated on the LumAvidin® beads.

[2] = target: T2, Pig ASGR-1; test: FACS on transfected HEK 293 cells or membrane preps on beads; Y = signal at least 2x irrelevant IgG
Summary of the method: (§1)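 Antibodies at normalized concentrations bound 1 h at 4° C to HEK 293 cells expressing each antigen, then Alexa Fluor 647 anti-Fc plus 7-AAD 15 min at 4° C, flow cytometry; empty-vector cells as negative. Alternatively, species ASGR-1 membrane preps on streptavidin beads, antibody 1 h RT, Alexa Fluor 488 anti-Fc; FACS buffer with 1 mM CaCl2 throughout.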

[3] = target: T3, Dog ASGR-1; test: FACS on transfected HEK 293 cells or membrane preps on beads; binding = signal at least 2x irrelevant IgG
Summary of the method: as §1

binding result [1]	binding result [2]	binding result [3]	Binder
no binding	binds	no binding	4H6 (antibody, V domains shown, Tested as hybridoma supernatant at normalized concentration) VH: QVQLVQSGAEVKKPGASVKVSCKASGYTFTDYYLHWVRQAPGQGLEWMGWIHPNSGGTNYAQKFQGRVTMTRDTSISTAYMGLSSLRSDDTAVYYCARDGTSSFDYWGQGTLVTVSS VL: DIQMTQSPSSVSASVGDRVTITCRASQGISRWLAWYQQKPGKAPKLLIYGASSLQSGVPSRFSGSGSGTDFTLTISSLQPEDFAIYYCQQANSFPFTFGPGTKVDIK
no binding	binds	no binding	56E5 (antibody, V domains shown, Tested as hybridoma supernatant at normalized concentration) VH: QVQLVQSGAEVKKPGASVKVSCQASGYTFTGYHMHWVRQAPGQGLEWMGWINPNNNATNYAQKFQGRVTMTRDTSISTAYMELRRLRSDDTAVYHCARDGTSSFDYWGQGTLVTVSS VL: DIQMTQSPSSVSASVGDRVTITCRASQGIRKWLAWYQQKPGKAPKLLIYAASSLQSGVPSRFSGSGSGTDFTLTISSLQPEDFATYYCQQANSFPFTFGPGTKVDIK
no binding	binds	no binding	29H8 (antibody, V domains shown, Tested as hybridoma supernatant at normalized concentration) VH: QVQLVQSGAEVQKPGASVKVSCKASGYTFTNYDINWVRQATGQGLEWMGWMNPNSGNTGYAQRFQGRVTMTRNTSISAAYMELSSLRSEDTAVYYCASSSGWYYFDYWGQGTLVTVSS VL: not shown
no binding	binds	no binding	4A2 (antibody, V domains shown, Tested as hybridoma supernatant at normalized concentration) VH: QVQLVQSGTEVKKPGASVKVSCKASGYTFTNYDINWVRQATGQGLEWMGWMHPNSGNTGYAQKFQGRVTLTRNTSISTAYMELSSLRSEDTAVYYCASSSGWYYFDYWGQGTLVTVSS VL: DIVMTQSPDSLAVSLGERATINCKSSQSILHSSNNNNYLAWFQQKPGQPPKLLLYWASTRESGVPDRFSGSGSGTDFTLTISSLQPEDVAVYYCQQYYNTPVTFGPGTKVGIK
